{
  "source": "paper PMC4414916",
  "about": "(Biochemistry, 2015)",
  "molecules": {"B1": {"name": "WT GLIC: wild-type Gloeobacter violaceus proton-gated pentameric ligand-gated ion channel (protein)", "chain": "QDMVSPPPPIADEPLTVNTGIYLIECYSLDDKAETFKVNAFLSLSWKDRRLAFDPVRSGVRVKTYEPEAIWIPEIRFVNVENARDADVVDISVSPDGTVQYLERFSARVLSPLDFRRYPFDSQTLHIYLIVRSVDTRNIVLAVDLEKVGKNDDVFLTGWDIESFTAVVKPANFALEDRLESKLDYQLRISRQYFSYIPNIILPMLFILFISWTAFWSTSYEANVTLVVSTLIAHIAFNILVETNLPKTPYMTYTGAIIFMIYLFYFVAVIEVTVQHYLKVESQPARAASITRASRIAFPVVFLLANIILAFLFFGF", "modifications": "left off: FLAG, C-terminal, state not stated"}},
  "key": {"[1]": {"system": "GLIC–nAChα7–ICD chimeras", "experiment": "Proton concentration–response", "assay_type": "cell-based, G. violaceus GLIC / human nAChRα7", "details": "proton activation (pH50), GLIC–nAChα7–ICD set, TEVC, −60 mV, ± standard error"}, "[2]": {"system": "GLIC–nAChα7–ICD chimeras and wild-type GLIC", "assay_type": "cell-based, G. violaceus GLIC / human nAChRα7", "details": "pH 7.5 to 5, after 48 h"}, "[3]": {"system": "GLIC–Glyα1–ICD chimeras", "experiment": "Proton concentration–response", "assay_type": "cell-based, G. violaceus GLIC / rat Glyα1", "details": "proton activation (pH50), GLIC–Glyα1–ICD set, TEVC, −60 mV, ± standard error"}, "[4]": {"system": "GLIC–GABAAρ1–ICD chimeras", "experiment": "Proton concentration–response", "assay_type": "cell-based, G. violaceus GLIC / human GABAAρ1", "details": "proton activation (pH50), GLIC–GABAAρ1–ICD set, TEVC, −60 mV, ± standard error"}},
  "data": [
    {"molecule": "B1", "values": [
      {"measurement": "−log EC50", "setting": "[1]", "value": "5.81 ± 0.05"},
      {"measurement": "effect of RIC-3 co-expression on current amplitudes", "setting": "[2]", "value": "did not alter"},
      {"measurement": "−log EC50", "setting": "[3]", "value": "5.81 ± 0.05"},
      {"measurement": "−log EC50", "setting": "[4]", "value": "5.81 ± 0.05"}
    ]}
  ]
}
